We go through 2 molecules from patent publication US12397052B2, “Microcapsule-based vaccine” (INSTITUTE OF PROCESS ENGINEERING, CHINESE ACADEMY OF …, priority 2018, dated 2025).

In one assay the test system is OVA+ cells. The assay can be described thus: Antigen utilization in thigh muscle by flow cytometry (OVA+ cells). The format is in vivo, C57BL/6 mice. As to conditions: 5th day. How it is done: Five days later, the mice were killed, and their muscle tissues containing the microspheres were taken out, cut into small pieces with scissors, ground into a suspension, resuspended in PBS at 4° C., and centrifuged to remove the supernatant. To the centrifugal residue, was added 1 mL of a solution of an enzyme mixture (made by dissolving collagenase D and 100 U/mL recombinant DNase I in RPMI 1640 medium) at a concentration of 1 mg/mL. The mixture was incubated at 37° C. for 30 min, washed with PBS, and subjected to filtration with a 20 μm cell sieve to get rid of impurities, giving a single-cell suspension. […] The BD LSRFortessa flow cytometer was used to detect OVA^+ cells, CD 11c^+OVA^+ cells, and F4/80^+OVA^+ cells, and the data was analyzed using the Flowjo software.
In the embedding group, as a result of the excellent antigen-retention capability and antigen-release capability, the number of OVA^+ cells increased by about 50 times, the endocytosis of OVA increased by 4 times or more, and the utilization of the antigen increased by 200 times or more. […] The utilization of the antigen was calculated by normalizing the number of OVA^+ cells multiplied by the fluorescence intensity using the utilization of the antigen of the simple antigen group.
On the technique in general: A flow cytometer gives signals particle by particle.

A further assay relates to E.G7 tumor cells. The assay can be described thus: E.G7 lymphoma solid tumor model.

Description for E.G7 tumor cells: To construct E.G7 tumor-bearing mice models, 1×10^6 E.G7 tumor cells (purchased from ATCC) were injected into 6-8 weeks old female C57BL/6 mice (purchased from Beijing Weitonglihua Experimental Animal Co., Ltd.) on the armpit, and the tumor-bearing mice were randomly divided into groups each consisting of 6 mice. The mice were vaccinated when the tumor grew to a volume of 50-60 mm^3 on the 4th day. […] The volume of the tumor was calculated by this formula: V=1/2×L×W^2 (where L is the length of the tumor, and W is the width of the tumor).

B1: simple antigen group: preparation of a simple fluorescent antigen (OVA labeled with dye Cy5), no carrier (protein, UniProt P01012 2-386, looked up)
Ovalbumin: GSIGAASMEFCFDVFKELKVHHANENIFYCPIAIMSALAMVYLGAKDSTRTQINKVVRFDKLPGFGDSIEAQCGTSVNVHSSLRDILNQITKPNDVYSFSLASRLYAEERYPILPEYLQCVKELYRGGLEPINFQTAADQARELINSWVESQTNGIIRNVLQPSSVDSQTAMVLVNAIVFKGLWEKAFKDEDTQAMPFRVTEQESKPVQMMYQIGLFRVASMASEKMKILELPFASGTMSMLVLLPDEVSGLEQLESIINFEKLTEWTSSNVMEERKIKVYLPRMKMEEKYNLTSVLMAMGITDVFSSSANLSGISSAESLKISQAVHAAHAEINEAGREVVGSAEAGVDAASVSEEFRADHPFLFCIKHIATNAVLFFGRCVSP
modifications: Cy5 dye label
notes: preparation of a simple fluorescent antigen (OVA labeled with dye Cy5), no carrier
Regarding B1, in the assay with OVA+ cells, the “fluorescence intensity of intracellular OVA” value is “very weak” and the “number of OVA+ cells” value is “small”.

B2: OVA: free OVA antigen (Sigma), low-dose several times or high-dose (60 μg) a single time (protein, UniProt P01012 2-386, looked up)
Ovalbumin: B1 Ovalbumin
On to B2, for which the “25-day survival rate (SR)” value in the assay on E.G7 tumor cells (mouse, in vivo) amounted to 17%. In the assay with E.G7 tumor cells (vaccinated on 4th day), the “tumor growth (E.G7)” value is given as “not inhibited”.
